Experimental data: patent publication US20190359712A1 (Daiichi Sankyo, published 2019)
Numbering of substitutions follows the chain as printed. Names and notes keep the numbering of the source.

T1: recombinant human TROP-2/human IgG Fc fused form (R&D Systems, Inc.) (human, UniProt P09758 27-274, limits assumed)
T1 construct: Bought reagent; also called TROP-2/Fc; not shown: human IgG Fc
T1 sequence (looked up): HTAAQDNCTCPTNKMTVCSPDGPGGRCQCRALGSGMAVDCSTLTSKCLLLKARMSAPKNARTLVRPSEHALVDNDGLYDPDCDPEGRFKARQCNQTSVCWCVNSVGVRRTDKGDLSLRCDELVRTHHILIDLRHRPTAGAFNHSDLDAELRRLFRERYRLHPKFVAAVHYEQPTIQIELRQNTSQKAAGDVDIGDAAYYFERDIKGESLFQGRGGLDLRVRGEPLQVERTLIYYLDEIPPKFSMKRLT

B1: T2C-0006 (HT1-11 scFv/C3E-7036 bispecific molecule) (bispecific antibody)
chain: GQVQLVQSGAEVKKPGASVKVSCKASGYTFTTAGMQWVRQAPGQGLEWMGWINTHSGVPKYAEDFKGRVTISADTSTSTAYLQLSSLKSEDTAVYYCARSGFGSSYWYFDVWGQGTLVTVSSGGGGSGGGGSGGGGSDIQMTQSPSSLSASVGDRVTITCKASQDVSTAVAWYQQKPGKAPKLLIYSASYRYTGVPSRFSGSGSGTDFTLTISSLQPEDFAVYYCQQHYITPLTFGQGTKLEIKRTGGGGSEVQLVESGGGLVQPGGSLRLSCAASGVTFNYYGMSWIRQAPGKGLEWVASITNSGGRIYYPDSVKGRFTISRENTQKTLYLQMNSLRAEDTAVYYCTLDGRDGWVAYWGQGTLVTVSSGGGGSGGGGSGGGGSNFMLTQPSSVSGVPGQRVTISCTGNTGNIGSNYVNWYQQLPGTAPKLLIYRDDKRPSGVPDRFSGSKSGTSASLAITGFQAEDEADYYCQSYSSGFIFGGGTKLTVLGAAAGAGGDYKDDDDKGAAAHHHHHH
notes: Tandem scFv; also called anti-TROP2-CD3 bispecific molecule
B2: C3E-7078 (CDR modified humanized anti-CD3 scFv) (scFv)
scFv: GEVQLVESGGGLVQPGGSLRLSCAASGVTFNYYGMSWIRQAPGKGLEWVASITRSGGRIYYPDSVKGRFTISRENTQKTLYLQMNSLRAEDTAVYYCTLDGRDGWVAYWGQGTLVTVSSGGGGSGGGGSGGGGSNFMLTQPHSVSESPGKTVTISCKRNTGNIGSNYVNWYQQHEGSSPTTIIYRDDKRPDGVSDRFSGSIDRSSKSASLTISNLKTEDEADYFCQSYSSGFIFGGGTKLTVLGAAAGAGGDYKDDDDKGAAAHHHHHH
notes: the change is already in the entry
B3: C3E-7089 (CDR modified humanized anti-CD3 scFv) (scFv)
scFv: B2 scFv with D186S
notes: C3E-7078 with serine for aspartic acid at position 52 of the VL; the change is already in the entry
B4: C3E-7095 (CDR modified humanized anti-CD3 scFv) (scFv)
scFv: B2 scFv with R54S, D186A
notes: C3E-7079 with alanine for aspartic acid at position 52 of the VL; the change is already in the entry
B5: C3E-7079 (CDR modified humanized anti-CD3 scFv) (scFv)
scFv: B2 scFv with R54S
notes: as for B2
B6: C3E-7092 (CDR modified humanized anti-CD3 scFv) (scFv)
scFv: B2 scFv with R54S, D186Q
notes: C3E-7079 with glutamine for aspartic acid at position 52 of the VL; the change is already in the entry
B7: C3E-7090 (CDR modified humanized anti-CD3 scFv) (scFv)
scFv: B2 scFv with D186A
notes: C3E-7078 with alanine for aspartic acid at position 52 of the VL; the change is already in the entry
B8: C3E-7086 (CDR modified humanized anti-CD3 scFv) (scFv)
scFv: B2 scFv with D186G
notes: C3E-7078 with glycine for aspartic acid at position 52 of the VL; the change is already in the entry
B9: C3E-7093 (CDR modified humanized anti-CD3 scFv) (scFv)
scFv: B2 scFv with R54S, D186N
notes: C3E-7079 with asparagine for aspartic acid at position 52 of the VL; the change is already in the entry
B10: C3E-7091 (CDR modified humanized anti-CD3 scFv) (scFv)
scFv: B2 scFv with R54S, D186G
notes: C3E-7079 with glycine for aspartic acid at position 52 of the VL; the change is already in the entry
B11: C3E-7087 (CDR modified humanized anti-CD3 scFv) (scFv)
scFv: B2 scFv with D186Q
notes: C3E-7078 with glutamine for aspartic acid at position 52 of the VL; the change is already in the entry
B12: C3E-7088 (CDR modified humanized anti-CD3 scFv) (scFv)
scFv: B2 scFv with D186N
notes: C3E-7078 with asparagine for aspartic acid at position 52 of the VL; the change is already in the entry
B13: C3E-7094 (CDR modified humanized anti-CD3 scFv) (scFv)
scFv: B2 scFv with R54S, D186S
notes: C3E-7079 with serine for aspartic acid at position 52 of the VL; the change is already in the entry
B14: C3E-7035 (humanized anti-CD3 scFv) (scFv)
scFv: GEVQLVESGGGLVQPGGSLRLSCAASGVTFNYYGMSWIRQAPGKGLEWVASITNSGGRIYYPDSVKGRFTISRENTQKTLYLQMNSLRAEDTAVYYCTLDGRDGWVAYWGQGTLVTVSSGGGGSGGGGSGGGGSMAQAVLTQPSSVSGVPGQRVTISCKRNTGNIGSNYVNWYQQLPGTAPKLLIYRDDKRPSGVPDRFSGSKSGTSASLAITGFQAEDEADYYCQSYSSGFIFGGGTKLTVLGAAAGAGGDYKDDDDKGAAAHHHHHH
B15: C3E-7036 (humanized anti-CD3 scFv) (scFv)
scFv: GEVQLVESGGGLVQPGGSLRLSCAASGVTFNYYGMSWIRQAPGKGLEWVASITNSGGRIYYPDSVKGRFTISRENTQKTLYLQMNSLRAEDTAVYYCTLDGRDGWVAYWGQGTLVTVSSGGGGSGGGGSGGGGSNFMLTQPSSVSGVPGQRVTISCTGNTGNIGSNYVNWYQQLPGTAPKLLIYRDDKRPSGVPDRFSGSKSGTSASLAITGFQAEDEADYYCQSYSSGFIFGGGTKLTVLGAAAGAGGDYKDDDDKGAAAHHHHHH
B16: C3E-7085 (CDR modified humanized anti-CD3 scFv) (scFv)
scFv: B15 scFv with N54R
notes: C3E-7036 with arginine for asparagine at position 53 of the VH; the change is already in the entry
B17: C3E-3007 scFv (humanized OKT3 scFv) (scFv)
scFv: QVQLVQSGAESKKPGASVKVSCKASGYTFTRYTMHWVRQAPGQGLEWMGYINPSRGYTNYNQKFKDRVTITADKSTSTAYMELSSLRSEDTAVYYCARYYDDHYCLDYWGQGTLVTVSSGGGGSGGGGSGGGGSQIQMTQSPSSLAVSLGERATITCSASSSVSYMNWYQQKPGKAPKRWIYDTSKLASGVPDRFSGSGSGTDFTLTISSLQAEDVATYYCQQWSSNPFTFGQGTKVEIKRGASAAAGSGGDYKDDDDKGAAAHHHHHH

Columns and labels:
[1] = target: T1, recombinant human TROP-2/human IgG Fc …; test: SPR (BIAcore 3000), TROP-2/Fc captured on anti-human IgG(Fc), bispecific as analyte, 1:1 binding model
Procedure: The bispecific molecule was assayed for its binding to TROP2 using BIAcore 3000 (GE Healthcare Bio-Sciences Corp.) by the capture method, which involves capturing the antigen by an anti-human IgG antibody and assaying the bispecific molecule as an analyte. The antigen used was recombinant human TROP-2/human IgG Fc fused form (R&D Systems, Inc.). Approximately 2000 RU of the anti-human IgG(Fc) antibody (Human Antibody Capture Kit, GE Healthcare Bio-Sciences Corp.) was covalently bound to a sensor chip CM5 (GE Healthcare Bio-Sciences Corp.) by the amine coupling method. Similarly, this antibody was immobilized onto a reference cell. The running buffer used was HBS-P (10 mM HEPES (pH 7.4), 0.15 M NaCl, and 0.005% Surfactant P20). The bispecific molecule was prepared at a 2-fold dilution ratio from 200 nM to 1 nM. A 1 μg/ml solution of the antigen was added onto the anti-human IgG(Fc) antibody-immobilized chip for approximately […]. Then, each concentration of the bispecific molecule was added at a flow rate of 30 μl/min for 300 seconds. Subsequently, the dissociation phase was monitored for 600 seconds. A 3 M magnesium chloride solution was added as a regenerating solution for 30 seconds. The data was analyzed using the 1:1 binding model of analytical software (BIAevaluation software, version 4.1.1) to calculate an association rate constant (ka), a dissociation rate constant (kd), and a dissociation constant (KD; KD=kd/ka).

human CD3 on human PBMC [2] = target: T2, human CD3 on human PBMC (human, UniProt P07766 23-207); test: flow cytometry on human PBMC (dead cells and CD19-positive cells excluded), Penta-His Alexa Fluor 488 detection, rMFI
T2 construct: Native CD3 complex on T cells in PBMC; the other chains of the complex are native; also called human CD3 (PBMC)

[3] = target: T3, cynomolgus monkey CD3 on cynomolgus monkey PBMC or T cell line HSC-F (cynomolgus monkey, UniProt Q95LI5 22-198); test: flow cytometry on cynomolgus monkey PBMC, Penta-His Alexa Fluor 488 detection, rMFI
T3 construct: whole, on cells; Native CD3 complex on monkey T cells; also called cynomolgus monkey CD3 (PBMC); cynomolgus monkey CD3 antigen
T3 sequence (Q95LI5 22-198): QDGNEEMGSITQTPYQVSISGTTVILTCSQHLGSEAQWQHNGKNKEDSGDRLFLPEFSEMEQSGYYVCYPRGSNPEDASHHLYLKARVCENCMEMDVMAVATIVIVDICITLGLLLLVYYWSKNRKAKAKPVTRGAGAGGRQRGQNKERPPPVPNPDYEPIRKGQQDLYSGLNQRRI

[4] = target: T3, cynomolgus monkey CD3 on cynomolgus …; test: flow cytometry on cynomolgus monkey PBMC
human CD3 on human PBMC [5] = target: T2, human CD3 on human PBMC; test: flow cytometry on human PBMC
human CD3 on human PBMC [6] = target: T2, human CD3 on human PBMC; test: flow cytometry on human PBMC, Penta-His Alexa Fluor 488 detection (rMFI)
Procedure: Commercially available human PBMC (Cellular Technology Ltd. (CTL)) was adjusted to an appropriate concentration with PBS containing 5% FBS. LIVE/DEAD Fixable Near-IR Dead Cell Stain Kit (Thermo Fisher Scientific Inc.) and an anti-CD19 antibody (Beckman Coulter Inc.) were added to the cells, which were then left standing at 4° C. for 30 minutes. The cells were washed twice with PBS containing 5% FBS, then adjusted to a concentration of 1×10⁶ cells/mL with PBS containing 5% FBS, added at a concentration of 100 μL/well to a 96-well U-bottomed microplate, and centrifuged to remove a supernatant. […] The cells were washed twice with PBS containing 5% FBS. Then, Penta-His Alexa Fluor 488 (Qiagen N.V.) diluted with PBS containing 5% FBS was added at a concentration of 30 μL/well, and the plate was left standing at 4° C. for 30 minutes. The cells were washed twice with PBS containing 5% FBS and then resuspended in PBS containing 5% FBS, followed by detection using a flow cytometer (FACSCanto™ II; Becton, Dickinson and Company). The data was analyzed using Flowjo (Tree Star Inc.). The mean fluorescence intensity (MFI) of Alexa Fluor 488 in a fraction free of dead cells and CD19-positive cells was calculated. The MFI value of the scFv-unsupplemented sample was subtracted from the MFI value of the scFv-supplemented sample to calculate a relative value of MFI (rMFI).

[7] = target: T4, CD3 immobilized on a sensor chip (Example 7)-1-2); test: SPR (BIAcore T-200), CD3 immobilized, scFv injected at five concentrations; concentration giving 1/2 Rmax
T4 construct: the text says only 'CD3 immobilized on a sensor chip'; also called human CD3
Procedure: Five different concentrations of the scFv were injected into CD3 immobilized on a sensor chip. Rmax was estimated from the resulting response, and the antibody concentration that reached 1/2 thereof was defined as the dissociation constant of the scFv for CD3.

| Binder | binding result [4] | binding result (human CD3 on human PBMC [5]) | other results |
| --- | --- | --- | --- |
| B1 |  |  | Kd [1]: 0.0093 µM; binding result (human CD3 on human PBMC [2]): binds; binding result [3]: binds |
| B2 | binds | binds |  |
| B3 | binds | binds |  |
| B4 | binds | binds |  |
| B5 | binds | binds |  |
| B6 | binds | binds |  |
| B7 | binds | binds |  |
| B8 | binds | binds |  |
| B9 | binds | binds |  |
| B10 | binds | binds |  |
| B11 | binds | binds |  |
| B12 | binds | binds |  |
| B13 | binds | binds |  |
| B14 | binds |  | binding result (human CD3 on human PBMC [6]): binds; Kd [7]: 0.022 µM |
| B15 | binds |  | binding result (human CD3 on human PBMC [6]): binds; Kd [7]: 0.025 µM |
| B16 | binds | binds |  |
| B17 |  |  | binding result (human CD3 on human PBMC [6]): binds; Kd [7]: 0.4 µM |
